The record followed here is paper PMC4277816 (Chemical communications (Cambridge, England), 2014).

Square brackets hold non-standard residues; d marks the D form. Peptide text beside a SMILES is read from it. * marks the point of attachment. X2 = O=C(O)C(CCCCN*)N1CCCN2CCN(CCCN(CP(=O)(O)O)CC2)CC1; PEG4 = NCCOCCOCCOCCOCCC(=O)O; X1 = O=C(/C=C/c1ccccc1)*

The nature of the data set: serum stability of 64Cu-labelled cFlFlF peptide–chelate conjugates. In kind it is in vitro ADME. Particulars: compared with the 64Cu–CB-TE1A1P peptide, result in words (Fig. S2b, ESI).

On to `CC(C)C[C@@H](NC(=O)[C@H](Cc1ccccc1)NC(=O)[C@@H](CC(C)C)NC(=O)[C@H](Cc1ccccc1)NC(=O)/C=C/c1ccccc1)C(=O)N[C@@H](Cc1ccccc1)C(=O)NCCOCCOCCOCCOCCC(=O)NCCCCC(C(=O)O)N1CCCN2CCN(CCCN(CP(=O)(O)O)CC2)CC1` (stereo partly drawn) [64Cu–CB-TE1K1P peptide, metal not drawn] (X1-F[dL]F[dL]F[PEG4]-X2; N-terminus assumed), for which the serum stability result is listed as “better serum stability”.
